Laboratory results from patent publication US20060177449A1.

Legend:
[1] = molecular target: monoclonal antibody 23L-1Na; assay: competitive EIA: unlabeled ligand varied against HRP-labeled [Cys^19-NH2] rat TGR23-2 ligand (1-19) for 23L-1Na (FIG. 5)
[2] = molecular target: monoclonal antibody 23L-2Ca; assay: competitive EIA: unlabeled ligand varied against HRP-labeled [Cys^19-NH2] rat TGR23-2 ligand (1-19) for 23L-2Ca (FIG. 7)
[3] = molecular target: monoclonal antibody 23L-1Ca; assay: competitive EIA: unlabeled ligand varied against HRP-labeled [Cys^19-NH2] rat TGR23-2 ligand (1-19) for 23L-1Ca (FIG. 6)

Binder	IC50 [1] [nM]	IC50 [2] [nM]	IC50 [3] [nM]
SFRNGVGTGMKKTSFQRAKS [human TGR23-2 ligand]	60		
SFRNGVGSGAKKTSFRRAKQ [mouse TGR23-2 ligand]	60	40	
SFRNGVGSGVKKTSFRRA [rat TGR23-2 ligand]	100	20	20
